Target: the molecule itself
Experiment: cryo-EM structure; BtubA*B single protofilaments, 0.21 mg/mL in HMK100 pH 7.7 with 0.5 mM GMPCPP, 45 s at 20 °C

B1: Prosthecobacter dejongeii BtubA*B heterodimer (BtubA* R284G, R286D, F287G with BtubB) (complex)
chain 1: MKVNNTIVVSIGQAGNQIAASFWKTVCLEHGIDPLTGQTAPGVAPRGNWSSFFSKLGESSSGSYVPRAIMVDLEPSVIDNVKATSGSLFNPANLISRTEGAGGNFAVGYLGAGREVLPEVMSRLDYEIDKCDNVGGIIVLHAIGGGTGSGFGALLIESLKEKYGEIPVLSCAVLPSPQVSSVVTEPYNTVFALNTLRRSADACLIFDNEALFDLAHRKWNIESPTVDDLNLLITEALAGITASMRFSGFLTVEISLRELLTNLVPQPSLHFLMCAFAPLTPPDGSDGEELGIEEMIKSLFDNGSVFAACSPMEGRFLSTAVLYRGIMEDKPLADAALAAMREKLPLTYWIPTAFKIGYVEQPGISHRKSMVLLANNTEIARVLDRICHNFDKLWQRKAFANWYLNEGMSEEQINVLRASAQELVQSYQVAEESGAKAKVQDSAGDTGMRAAAAGVSDDARGSMSLRDLVDRRR
chain 2: MREILSIHVGQCGNQIADSFWRLALREHGLTEAGTLKEGSNAAANSNMEVFFHKVRDGKYVPRAVLVDLEPGVIARIEGGDMSQLFDESSIVRKIPGAANNWARGYNVEGEKVIDQIMNVIDSAVEKTKGLQGFLMTHSIGGGSGSGLGSLILERLRQAYPKKRIFTFSVVPSPLISDSAVEPYNAILTLQRILDNADGAVLLDNEALFRIAKAKLNRSPNYMDLNNIIALIVSSVTASLRFPGKLNTDLSEFVTNLVPFPGNHFLTASFAPMRGAGQEGQVRTNFPDLARETFAQDNFTAAIDWQQGVYLAASALFRGDVKAKDVDENMATIRKSLNYASYMPASGGLKLGYAETAPEGFASSGLALVNHTGIAAVFERLIAQFDIMFDNHAYTHWYENAGVSRDMMAKARNQIATLAQSYRDAS
notes: BtubA*, as m5; BtubB, as m6; The heterodimer as the unit that polymerises into single protofilaments; also called BtubA*B M-loop mutant; mutant BtubAB; source: E. coli C41(DE3), co-expressed and co-purified (HiTrap Q XL, Sephacryl S300, Mono Q)
- binding result: binds

Reference: paper doi:10.1101/2022.09.08.507146, “Cytomotive actins and tubulins share a polymerisation switch mechanism conferring robust dynamics” (bioRxiv, 2022)
